Experimental data taken from PMC4053179.

Experiments:
[1] = molecular target: recombinant p38α MAP kinase (mitogen activated protein kinase) (UniProt Q16539); assay: SPR; His-tagged p38α immobilised on an NTA sensor chip via Ni2+/NTA chelation, 25°C, BIAcore-2000; C-25 injected at 4.6 × 10^−6, 9.2 × 10^−6 and 13.8 × 10^−6 M; BIAevaluation 3.0
[2] = molecular target: recombinant p38α MAP kinase (mitogen activated protein kinase) (UniProt Q16539)

Sequence of UniProt Q16539 (Q16539 whole entry): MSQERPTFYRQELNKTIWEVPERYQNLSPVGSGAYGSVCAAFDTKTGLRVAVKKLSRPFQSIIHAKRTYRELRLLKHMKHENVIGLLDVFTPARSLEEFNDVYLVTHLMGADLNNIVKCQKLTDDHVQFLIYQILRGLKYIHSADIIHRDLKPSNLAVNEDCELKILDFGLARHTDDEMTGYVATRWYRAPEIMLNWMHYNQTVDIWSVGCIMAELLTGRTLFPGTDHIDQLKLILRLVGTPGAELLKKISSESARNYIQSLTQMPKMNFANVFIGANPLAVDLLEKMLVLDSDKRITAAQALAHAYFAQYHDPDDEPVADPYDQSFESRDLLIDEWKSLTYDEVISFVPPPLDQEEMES

## C-25 protein from Cicer arietinum (natural protein)
[1]
  Kd: 0.269 µM
[2]
  IC50 of inhibition of the phosphorylation of plate-coated ATF-2 by p38α (ELISA kinase assay, 100 μM ATP, C-25 at 1-25 μM, anti-phospho ATF-2 detection): 7.9 µM
